Data taken from article PMC2515629 (PLoS ONE, 2008).

Biological target: T1, recombinant BoNT/A light chain (recombinant N-terminal domain of BoNT/A, amino acids 1-425) (Clostridium botulinum type A, …, UniProt P0DPI0)
T1 construct: source: E. coli, purified following published protocols
Test: kinetic exclusion assay (KinExA)
Details: both partners purified

T1 sequence (P0DPI0 1-425): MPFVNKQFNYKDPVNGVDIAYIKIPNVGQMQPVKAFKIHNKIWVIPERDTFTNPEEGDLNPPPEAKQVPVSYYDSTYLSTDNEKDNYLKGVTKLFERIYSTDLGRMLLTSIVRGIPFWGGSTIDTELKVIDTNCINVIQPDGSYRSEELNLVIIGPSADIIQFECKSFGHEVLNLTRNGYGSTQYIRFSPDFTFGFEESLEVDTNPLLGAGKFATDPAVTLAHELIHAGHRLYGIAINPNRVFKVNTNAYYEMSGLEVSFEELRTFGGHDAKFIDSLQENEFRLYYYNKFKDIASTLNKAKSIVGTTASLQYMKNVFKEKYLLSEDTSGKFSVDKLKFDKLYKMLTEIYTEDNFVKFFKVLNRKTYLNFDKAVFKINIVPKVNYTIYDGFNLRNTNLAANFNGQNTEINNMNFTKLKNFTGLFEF

B1: 4LCA antibody (antibody, V domains shown)
VH: QLQLQESGPGLVKPSETLSLTCTVSGGSISSSSYFWGWIRQPPGKGLEWIGYIHYSGNTYYNPSLTSRVTMSVDKSKNQFSLKLTSVTAADTALYSCATFLGRGAPFDPWGQGTLVTVSS
VL: QPPSVSVAPGQTARITCGGTNIGSKSVHWYQRQPGQAPVLVIYYDTDRPSGIPERFSGSNSENTATLTISRVEAGDEADYYCQVWGSGSDHPGVFGGGTKLTVL
notes: also called 4LCA mAb; 4LCA human monoclonal antibody
  Kd: 0.031 nM
  koff: 7.1e-05 s⁻¹
  kon: 2.3e+06 M⁻¹ s⁻¹
